Data on two substances can be found in patent US20040266665A1.

Bounds are passed on as bounds.

Experiment [1] concerns the target human thyroid stimulating hormone receptor (TSHR) (human) (UniProt P16473). The experiment can be described thus: cell-based or functional assay.
Experiment [2] has the same target. The experiment can be described thus: receptor binding affinity; assay and reference not described (reference presumably wild type hTSH).

Regarding “mutant TSH heterodimer comprising the α4K subunit (αQ13K+αE14K+αP16K+αQ20K) and a fusion protein of the TSH β subunit and the CTEP of hCG (from UniProt P0DN86 134-165) (ligand)”, in experiment [1], the Vmax of cyclic AMP production in CHO-JP09 cells, compared to wild type TSH was determined as 1.5 fold; the in vitro activity (cyclic AMP production in CHO-JP09 cells) over that of the α4K/wild type β heterodimer is 3 to 4 fold; the potency in stimulation of cyclic AMP production in CHO-JP09 cells, compared to wild type TSH was found to be 200 fold.

Consider “α4K/β3R hTSH analog (heterodimer of α4K mutant α subunit and β3R mutant TSH β subunit) (from UniProt P01215 25-116; P01222 21-132) (ligand)”, for which, in experiment [2], the fold increase in binding affinity is < 50000 fold. Further, the hormone potency in experiment [1] was < 1300 fold.
